Tests used:
[1] = target: T1, MGNAAAAK (PKC a) octameric peptide
T1 chain: MGNAAAAK

MGKVKVG (GADPH) peptide = target: T2, MGKVKVG (GADPH) peptide
T2 chain: MGKVKVG

MGKVKVGVNGF peptide = target: T3, MGKVKVGVNGF peptide
T3 chain: MGKVKVGVNGF

[2] = target: T4, MGNLKSVA (eNOS) octameric peptide
T4 chain: MGNLKSVA

[3] = target: T5, MGAQFSKT (MARCKS protein) octameric peptide
T5 chain: MGAQFSKT

MGKVKV peptide = target: T6, MGKVKV peptide
T6 chain: MGKVKV

MGKVKVGVN peptide = target: T7, MGKVKVGVN peptide
T7 chain: MGKVKVGVN

MGKVK peptide = target: T8, MGKVK peptide
T8 chain: MGKVK

MGKVKVGVNG peptide = target: T9, MGKVKVGVNG peptide
T9 chain: MGKVKVGVNG

MGK peptide = target: T10, MGK peptide
T10 chain: MGK

MGKV peptide = target: T11, MGKV peptide
T11 chain: MGKV

[4] = target: T12, MGSSKSKP (Src p60) octameric peptide
T12 chain: MGSSKSKP

[5] = target: T13, MAS (methionine-alanine-serine) trimeric peptide
T13 chain: MAS

B1: recombinant human methionine aminopeptidase type 2 (MetAP2) with N-terminal histidine tag (protein)
chain: MAGVEEVAASGSHLNGDLDPDDREEGAASTAEEAAKKKRRKKKKSKGPSAAGEQEPDKESGASVDEVARQLERSALEDKERDEDDEDGDGDGDGATGKKKKKKKKKRGPKVQTDPPSVPICDLYPNGVFPKGQECEYPPTQDGRTAAWRTTSEEKKALDQASEEIWNDFREAAEAHRQVRKYVMSWIKPGMTMIEICEKLEDCSRKLIKENGLNAGLAFPTGCSLNNCAAHYTPNAGDTTVLQYDDICKIDFGTHISGRIIDCAFTVTFNPKYDTLLKAVKDATNTGIKCAGIDVRLCDVGEAIQEVMESYEVEIDGKTYQVKPIRNLNGHSIGQYRIHAGKTVPIVKGGEATRMEEGEVYAIETFGSTGKGVVHDDMECSHYMKNFDVGHVPIRLPRTKHLLNVINENFGTLAFCRRWLDRLGESKYLMALKNLCDLGIVDPYPPLCDIKGSYTAQFEHTILLRPTCKEVVSRGDDY
B1 was tested, and the Km [1] was 260 µM, the kcat [1] was 3.78 s⁻¹ and the kcat/Km [1] was 0.9. The Km (MGKVKVG (GADPH) peptide) was 215 µM, the kcat (MGKVKVG (GADPH) peptide) was 9.56 s⁻¹ and the kcat/Km (MGKVKVG (GADPH) peptide) was 2.7. The Km (MGKVKVGVNGF peptide) was 131 µM, the kcat (MGKVKVGVNGF peptide) was 9.43 s⁻¹ and the kcat/Km (MGKVKVGVNGF peptide) was 4.3. For the same protein, the Km [2] was 208 µM, the kcat [2] was 4.87 s⁻¹ and the kcat/Km [2] was 1.4. For the same protein, the Km [3] was 224 µM, the “baseline activity (turnover, no added metal)” value [3] was 0.12 µM/min turnover of MGAQFSKT at 30 nM MetAP2 and the kcat [3] was 4.87 s⁻¹. The kcat/Km [3] was 1.3, the Km (MGKVKV peptide) was 149 µM and the kcat (MGKVKV peptide) was 8.53 s⁻¹. For the same protein, the kcat/Km (MGKVKV peptide) was 3.4, the Km (MGKVKVGVN peptide) was 205 µM and the kcat (MGKVKVGVN peptide) was 10.2 s⁻¹. For the same protein, the kcat/Km (MGKVKVGVN peptide) was 3, the Km (MGKVK peptide) was 188 µM and the kcat (MGKVK peptide) was 10.4 s⁻¹. The kcat/Km (MGKVK peptide) was 3.3, the Km (MGKVKVGVNG peptide) was 164 µM and the kcat (MGKVKVGVNG peptide) was 10.2 s⁻¹. For the same protein, the kcat/Km (MGKVKVGVNG peptide) was 3.7, the Km (MGK peptide) was 758 µM and the kcat (MGK peptide) was 3.32 s⁻¹. The kcat/Km (MGK peptide) was 0.3, the Km (MGKV peptide) was 624 µM and the kcat (MGKV peptide) was 6.7 s⁻¹. For the same protein, the kcat/Km (MGKV peptide) was 0.6, the Km [4] was 233 µM and the kcat [4] was 3.94 s⁻¹. For the same protein, the kcat/Km [4] was 1, the Km [5] was 212 µM and the “baseline activity (turnover, no added metal)” value [5] was 0.19 µM/min turnover of MAS at 60 nM MetAP2. The “enzymatic cleavage of peptide substrate” value [5] was “showed enzymatic activity in cleaving a tripeptide MAS substrate”, the kcat [5] was 2.54 s⁻¹ and the kcat/Km [5] was 0.72.
